Series [1] concerns the target T1, scTOP1 catalytically inactive variant (Saccharomyces cerevisiae) (UniProt P04786).
T1 sequence: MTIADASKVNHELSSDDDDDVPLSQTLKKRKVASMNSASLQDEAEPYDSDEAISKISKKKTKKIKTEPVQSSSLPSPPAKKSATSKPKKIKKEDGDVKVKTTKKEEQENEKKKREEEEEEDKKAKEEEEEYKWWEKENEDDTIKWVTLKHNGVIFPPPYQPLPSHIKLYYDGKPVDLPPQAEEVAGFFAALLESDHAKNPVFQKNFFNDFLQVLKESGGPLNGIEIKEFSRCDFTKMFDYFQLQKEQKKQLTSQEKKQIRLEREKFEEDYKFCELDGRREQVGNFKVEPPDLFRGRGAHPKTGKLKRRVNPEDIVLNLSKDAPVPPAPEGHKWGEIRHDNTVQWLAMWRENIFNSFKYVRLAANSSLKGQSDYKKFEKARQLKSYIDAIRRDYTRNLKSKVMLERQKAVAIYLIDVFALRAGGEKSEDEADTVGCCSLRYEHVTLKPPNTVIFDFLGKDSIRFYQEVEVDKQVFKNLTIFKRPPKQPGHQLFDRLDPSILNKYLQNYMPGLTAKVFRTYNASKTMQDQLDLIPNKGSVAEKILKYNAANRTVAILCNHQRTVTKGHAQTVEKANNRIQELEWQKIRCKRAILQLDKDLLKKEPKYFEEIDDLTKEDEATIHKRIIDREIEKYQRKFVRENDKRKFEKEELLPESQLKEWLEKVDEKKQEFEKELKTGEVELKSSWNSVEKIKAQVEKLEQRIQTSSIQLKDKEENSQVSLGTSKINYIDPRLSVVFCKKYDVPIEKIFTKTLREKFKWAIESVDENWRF
The experiment in a line: fluorescence anisotropy. The following applies: 20 mM Tris pH 8, 66 mM NaCl, 1 mM DTT, 2% glycerol, 0.5 nM DNA, 0-60 nM TOP1, 10 min at 37 C, errors are SEM of 3-5 experiments.

Series [2] concerns the target hTOP1 catalytically inactive variant (Homo sapiens, UniProt P11387 1-765, Y723F). The experiment in a line: fluorescence anisotropy; 20 mM Tris pH 8, 66 mM NaCl, 1 mM DTT, 2% glycerol, 0.5 nM DNA, 0-60 nM TOP1, 10 min at 37 C; errors are SEM of 3-5 experiments. The note with it: protein: recombinant; tags: N-terminal GST tag removed by 3C protease; label: 5'-FAM on strand 1; blunt.

The target of series [3] is T2, hTOP1MT catalytically inactive (Y955F) (Homo sapiens, UniProt Q969P6 =DIKLIDTVDLE+51-601, Y559F;internal_change).
T2 sequence: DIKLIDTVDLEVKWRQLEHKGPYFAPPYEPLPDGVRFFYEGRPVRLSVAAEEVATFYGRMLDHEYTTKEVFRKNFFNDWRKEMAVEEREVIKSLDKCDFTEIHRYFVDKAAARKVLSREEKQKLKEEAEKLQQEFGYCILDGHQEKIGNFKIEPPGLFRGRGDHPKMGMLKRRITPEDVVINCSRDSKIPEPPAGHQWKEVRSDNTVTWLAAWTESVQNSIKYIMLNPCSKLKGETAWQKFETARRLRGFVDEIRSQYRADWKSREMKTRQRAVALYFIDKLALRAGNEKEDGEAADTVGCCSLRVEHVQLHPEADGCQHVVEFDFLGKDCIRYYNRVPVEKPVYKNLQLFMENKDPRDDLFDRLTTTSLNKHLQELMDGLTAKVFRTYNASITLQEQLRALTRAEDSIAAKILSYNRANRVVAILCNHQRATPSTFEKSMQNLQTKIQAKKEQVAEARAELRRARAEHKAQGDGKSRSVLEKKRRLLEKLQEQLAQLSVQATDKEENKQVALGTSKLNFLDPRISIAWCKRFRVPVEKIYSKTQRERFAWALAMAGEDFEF
The series is described as above. The following applies: protein: recombinant; tags: GST tag removed by 3C protease; label: 5'-FAM on strand 1; blunt.

hTOP1 catalytically inactive variant, sequence (P11387 whole entry Y723F): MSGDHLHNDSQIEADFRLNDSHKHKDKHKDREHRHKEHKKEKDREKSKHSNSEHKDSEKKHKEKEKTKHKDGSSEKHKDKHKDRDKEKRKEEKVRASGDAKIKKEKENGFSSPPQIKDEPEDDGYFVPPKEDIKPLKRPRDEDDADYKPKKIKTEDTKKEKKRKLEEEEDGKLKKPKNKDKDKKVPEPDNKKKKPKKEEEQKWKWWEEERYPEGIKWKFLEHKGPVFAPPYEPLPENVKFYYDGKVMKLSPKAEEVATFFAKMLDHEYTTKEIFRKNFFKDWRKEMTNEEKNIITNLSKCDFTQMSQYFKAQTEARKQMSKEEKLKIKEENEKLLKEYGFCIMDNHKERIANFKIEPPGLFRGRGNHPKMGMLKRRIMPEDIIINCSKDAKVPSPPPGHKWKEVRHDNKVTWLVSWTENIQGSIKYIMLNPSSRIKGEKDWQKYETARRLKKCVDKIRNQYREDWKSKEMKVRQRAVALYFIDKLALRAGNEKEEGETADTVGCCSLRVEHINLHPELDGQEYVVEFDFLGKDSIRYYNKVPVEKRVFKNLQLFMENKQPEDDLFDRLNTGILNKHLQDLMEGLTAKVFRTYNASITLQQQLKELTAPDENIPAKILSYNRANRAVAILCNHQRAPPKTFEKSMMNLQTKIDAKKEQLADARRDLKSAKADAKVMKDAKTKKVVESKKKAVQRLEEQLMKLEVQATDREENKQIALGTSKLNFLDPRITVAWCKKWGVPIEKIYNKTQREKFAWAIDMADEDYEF

In turn, “AGCGTTGAAGAUATGTGGCAAAACCTTTGT / ACAAAGGTTTTGCCACATATCTTCAACGCT [Substrate B (rU at cleavage site)]” gave a Kd in series [1] (single ribonucleotide rU at position 12 of strand 1, all else DNA) of 5.5 nM.

As to “AGCGTTGAAGATATGTGGCAAAACCTTTGT (double strand) [Substrate A]”, the Kd in series [1] came out at 4.6 nM.

With “ACTCGTCACGAGAGAGATGCCACGGTATTTCAAA (double strand) [Substrate C]”, in series [1], the Kd amounted to 6.6 nM.

“ACTCGTCACGAGAGAGATGCCACGGTATTTCAAA (double strand) [Substrate D (rG upstream of cleavage site)]” had a Kd in series [1] (single ribonucleotide rG at position 16 of strand 1, all else DNA) of 6 nM.

B1: Substrate D (rG upstream of cleavage site) (dsDNA)
DNA 1: ACTCGTCACGAGAGAGATGCCACGGTATTTCAAA
DNA 2: TTTGAAATACCGTGGCATCTCTCTCGTGACGAGT
modifications: single ribonucleotide rG at position 16 of strand 1; all else DNA
Take B1: the Kd in series [2] amounted to 1.2 ± 0.09 nM; in series [3] it was 4.6 ± 0.37 nM.

B2: Substrate C (dsDNA)
DNA 1: B1 DNA 1
DNA 2: B1 DNA 2
On to B2, for which the Kd in series [2] turned out to be 1.8 ± 0.05 nM; in series [3], 4.7 ± 0.83 nM.

B3: Substrate A (dsDNA)
DNA 1: AGCGTTGAAGATATGTGGCAAAACCTTTGT
DNA 2: ACAAAGGTTTTGCCACATATCTTCAACGCT
For the molecule B3, the Kd was determined as 0.97 ± 0.06 nM in series [2] and 8.3 ± 0.59 nM in series [3].

Source of the values: PMC12143597, “The low endoribonuclease activity and lack of rNMP preference of human mitochondrial topoisomerase 1 protect against ribonucleotide-dependent deletions”.
